In PMC11224324:
Blank lines part the entries; values can stand above or below the substance they belong to.

Experiments:
[1] = target: Ct_HPt, histidine phosphotransfer protein from Chaetomium thermophilum (residues 9-175), Streptag removed (Chaetomium thermophilum)
[2] = target: REC_(hHK6), REC-1 domain of hybrid histidine kinase hHK6 (group VI, ortholog of Sln1) from Chaetomium thermophilum (Chaetomium thermophilum); assay: SEC-MALS; 20 µg of protein injected on PROTEIN KW-403 4F (Shodex); 50 mM Hepes pH 7, 150 mM NaCl; 0.35 ml/min; without and with PAM or BeF3-
[3] = target: Histag-Ct_HPt (residues 9-175), labelled with Red-Tris NTA dye (Chaetomium thermophilum); assay: MST; Histag-Ct_HPt labelled with Red-Tris NTA dye held constant; REC-1 domain in sixteen two-fold dilutions from 1 mM (0.32 mM for REC_hHK6); PBS + 0.05% Tween-20; medium MST power; hyperbolic fit, 1:1 model; mean of two titrations
[4] = target: REC_(hHK3), REC-1 domain of hybrid histidine kinase hHK3 (group III, ortholog of Nik1) from Chaetomium thermophilum (Chaetomium thermophilum); assay: SEC-MALS; 20 µg of protein injected on PROTEIN KW-403 4F (Shodex); 50 mM Hepes pH 7, 150 mM NaCl; 0.35 ml/min; without and with PAM or BeF3-

Sequence of Ct_HPt, histidine phosphotransfer protein from Chaetomium thermophilum (residues 9-175), Streptag removed (Chaetomium thermophilum) (main, as listed by the source): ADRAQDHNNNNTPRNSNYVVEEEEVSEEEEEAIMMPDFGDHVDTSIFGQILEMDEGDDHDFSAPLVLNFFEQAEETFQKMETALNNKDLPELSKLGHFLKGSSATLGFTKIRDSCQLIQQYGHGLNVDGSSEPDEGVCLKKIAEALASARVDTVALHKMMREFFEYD

phosphorylated Ct HPt (Ct HPt~P) on native gel after 30 min with REC-1 domain pre-phosphorylated with PAM (control of Ct HPt with PAM alone ~15%; none with AcP) [1]: 35%
Substance: REC_(hHK4), REC-1 domain of hybrid histidine kinase hHK4 (group IV) from Chaetomium thermophilum (domain or fragment)

stoichiometry N [2]: 2
Substance: REC_(hHK6), REC-1 domain of hybrid histidine kinase hHK6 (group VI, ortholog of Sln1) from Chaetomium thermophilum (domain or fragment)

Kd [3]: 94 µM
Substance: REC_(hHK5), REC-1 domain of hybrid histidine kinase hHK5 (group V) from Chaetomium thermophilum (domain or fragment)

stoichiometry N [4]: 3
Substance: REC_(hHK3), REC-1 domain of hybrid histidine kinase hHK3 (group III, ortholog of Nik1) from Chaetomium thermophilum (domain or fragment)

phosphorylated Ct HPt (Ct HPt~P) on native gel after 30 min with REC-1 domain pre-phosphorylated with PAM (control of Ct HPt with PAM alone ~15%; none with AcP) [1]: 35%
Substance: REC_(hHK11), REC-1 domain of hybrid histidine kinase hHK11 (group XI) from Chaetomium thermophilum (domain or fragment)
